The assay concerns the target T1, Escherichia coli trigger factor (Escherichia coli), P0A850.
T1 chain: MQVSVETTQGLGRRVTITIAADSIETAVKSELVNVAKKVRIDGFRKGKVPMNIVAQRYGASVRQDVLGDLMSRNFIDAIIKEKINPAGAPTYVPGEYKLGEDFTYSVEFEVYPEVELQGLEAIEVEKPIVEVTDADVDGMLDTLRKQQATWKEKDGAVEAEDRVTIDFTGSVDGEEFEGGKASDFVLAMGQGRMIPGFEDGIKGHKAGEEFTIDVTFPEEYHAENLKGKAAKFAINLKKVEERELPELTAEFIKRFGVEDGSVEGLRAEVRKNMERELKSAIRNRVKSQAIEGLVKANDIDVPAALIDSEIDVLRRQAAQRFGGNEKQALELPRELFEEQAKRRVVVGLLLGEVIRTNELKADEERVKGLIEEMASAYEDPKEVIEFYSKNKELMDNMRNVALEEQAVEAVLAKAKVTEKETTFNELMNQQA
Nature of the assay: SAXS (static); five to eight protein concentrations; 20 mM Tris pH 7.5, 150 mM KCl; 20 °C; BM29 beamline, ESRF; self-association. Conditions: remark: other sources report otherwise.

For orientation: stoichiometry N means the number of molecules, sites or subunits per partner or assembly.

B1: Escherichia coli trigger factor, P0A850 1-432 (natural protein)
chain: MQVSVETTQGLGRRVTITIAADSIETAVKSELVNVAKKVRIDGFRKGKVPMNIVAQRYGASVRQDVLGDLMSRNFIDAIIKEKINPAGAPTYVPGEYKLGEDFTYSVEFEVYPEVELQGLEAIEVEKPIVEVTDADVDGMLDTLRKQQATWKEKDGAVEAEDRVTIDFTGSVDGEEFEGGKASDFVLAMGQGRMIPGFEDGIKGHKAGEEFTIDVTFPEEYHAENLKGKAAKFAINLKKVEERELPELTAEFIKRFGVEDGSVEGLRAEVRKNMERELKSAIRNRVKSQAIEGLVKANDIDVPAALIDSEIDVLRRQAAQRFGGNEKQALELPRELFEEQAKRRVVVGLLLGEVIRTNELKADEERVKGLIEEMASAYEDPKEVIEFYSKNKELMDNMRNVALEEQAVEAVLAKAKVTEKETTFNELMNQQA
Molecule B1 registered a stoichiometry N of 2.

The record behind these values is publication PMC5587573.
